Consider three molecules from article PMC7655957 (2020).

The target of test [1] is MBP-LIC1FL, full-length dynein light intermediate chain-1 (human, UniProt Q9Y6G9 1-523). The test can be described thus: ITC; 5 mM EGTA, 30 °C. For orientation: In ITC the heat of successive injections is recorded.
In test [2] the target is T1, WT_(ZIP+)/WT_(ZIP−), BICD2_(1–98) heterodimer with C-terminal ZIP+/ZIP− leucine zipper (mouse (cDNA, methods); called human in …, UniProt Q921C5-1 1-98; Q921C5-1 1-98).
T1 chain 1: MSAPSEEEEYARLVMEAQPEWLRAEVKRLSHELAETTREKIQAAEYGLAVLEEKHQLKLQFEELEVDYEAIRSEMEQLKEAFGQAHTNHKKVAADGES
T1 chain 2: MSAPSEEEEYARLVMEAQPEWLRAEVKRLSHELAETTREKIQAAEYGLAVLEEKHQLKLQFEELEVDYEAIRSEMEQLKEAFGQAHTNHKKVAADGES
The test can be described thus: ITC; one-site binding model (rejected, poor fit).

Sequence of MBP-LIC1FL, full-length dynein light intermediate chain-1 (Q9Y6G9 whole entry): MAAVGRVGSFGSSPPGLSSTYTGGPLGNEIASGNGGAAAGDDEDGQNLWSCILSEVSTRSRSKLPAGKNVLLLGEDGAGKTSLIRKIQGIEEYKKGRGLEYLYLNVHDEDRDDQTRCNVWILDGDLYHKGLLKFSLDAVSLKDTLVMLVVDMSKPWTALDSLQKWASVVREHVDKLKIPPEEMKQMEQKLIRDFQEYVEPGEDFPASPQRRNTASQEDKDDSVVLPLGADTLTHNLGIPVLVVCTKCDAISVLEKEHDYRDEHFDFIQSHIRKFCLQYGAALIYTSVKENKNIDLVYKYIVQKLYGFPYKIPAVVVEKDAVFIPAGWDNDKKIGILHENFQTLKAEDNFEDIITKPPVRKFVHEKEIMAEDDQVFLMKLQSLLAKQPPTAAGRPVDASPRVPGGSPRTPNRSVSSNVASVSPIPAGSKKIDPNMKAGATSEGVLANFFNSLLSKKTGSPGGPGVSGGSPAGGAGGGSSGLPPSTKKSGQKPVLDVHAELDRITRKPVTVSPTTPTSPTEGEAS

B1: NIN_(1–87), first EF-hand pair of Ninein (domain or fragment)
chain: MDEVEQDQHEARLKELFDSFDTTGTGSLGQEELTDLCHMLSLEEVAPVLQQTLLQDNLLGRVHFDQFKEALILILSRTLSNEEHFQE
In general, Kd refers to the free concentration of one partner at which half of the binding sites on the other are occupied at equilibrium, for simple one-to-one binding. High values mean weaker binding, low ones tighter binding. B1 showed a Kd in test [1] of 15.5 µM.

In test [2], NMKAGATSEGVLANFFNSLLSKKTGS [LIC1_(433–458), amphipathic helix of the dynein light intermediate chain-1] gave a Kd of 3 µM.

B2: FIP3_(206–270), EF-hand pair of Rab11 family-interacting protein 3 (domain or fragment)
chain: RLRAVFDALDGDGDGFVRIEDFIQFATVYGAEQVKDLTKYLDPSGLGVISFEDFYQGITAIRNGD
Turning to B2, binding in test [1] was put at a Kd of 3.1 µM.
